According to patent US20100311820, “NUCLEIC ACID MODULATORS OF GLYCOPROTEIN VI” (Regado Biosciences, Inc, published 2010):

What was measured:
[1] = target: T1, Glycoprotein VI extracellular domain (Gln21-Lys267) (Homo sapiens) (UniProt Q9HCN6); assay: filter
T1 sequence: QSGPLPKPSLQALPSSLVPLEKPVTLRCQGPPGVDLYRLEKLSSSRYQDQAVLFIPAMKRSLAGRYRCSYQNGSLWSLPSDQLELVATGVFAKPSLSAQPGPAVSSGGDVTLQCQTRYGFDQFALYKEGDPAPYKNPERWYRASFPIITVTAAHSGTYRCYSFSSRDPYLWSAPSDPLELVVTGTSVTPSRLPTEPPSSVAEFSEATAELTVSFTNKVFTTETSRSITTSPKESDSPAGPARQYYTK

[2] = target: T2, Glycoprotein VI extracellular domain (Gln21-Lys267) (Homo sapiens, UniProt Q9HCN6 SEQ:1-247); assay: competition; competition with radiolabeled parent; conditions: tags: C-terminal His6; R&D Systems 3627-GP
T2 chain: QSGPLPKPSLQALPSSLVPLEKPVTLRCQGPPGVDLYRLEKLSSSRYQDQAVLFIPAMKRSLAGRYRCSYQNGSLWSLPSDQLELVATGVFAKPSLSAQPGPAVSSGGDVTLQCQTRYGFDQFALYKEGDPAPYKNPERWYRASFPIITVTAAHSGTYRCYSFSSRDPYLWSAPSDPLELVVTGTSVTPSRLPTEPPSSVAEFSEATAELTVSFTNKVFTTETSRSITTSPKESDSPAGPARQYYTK

[3] = target: T2, Glycoprotein VI extracellular domain …; assay: filter; conditions: tags: C-terminal His6; R&D Systems 3627-GP; label: 5'-32P
Method: (§1) Enrichment of the ligand libraries for GPVI was monitored in direct binding studies utilizing radiolabeled ligand RNA from respective rounds of SELEX and soluble GPVI. Binding studies were performed with trace P³² end-labeled RNA added to serial dilutions of GPVI in Binding Buffer F. To prepare radiolabeled RNAs for binding studies, one hundred picomoles of RNA was dephosphorylated with Bacterial Alkaline Phopshatase at 50° C. for 1 hour. The reaction was phenol:chloroform:isoamyl alcohol (25:24:1) extracted, chloroform: isoamyl:alcohol (24:1) extracted, and ethanol precipitated. Three pmoles of dephosphorylated RNA was end labeled with T4 Poylnucleotide Kinase with supplied buffer, and 20 μCi of γ-P³²-ATP and subsequently cleaned with a Biorad MicroBio Spin P-30 spin column. End-labeled RNA was diluted to a final concentration of 2000 cpm/μL and heat denatured at 65° C. for 5 minutes. RNA and GPVI dilutions were equilibrated at 37° C. prior to use. RNA (5 μL) was added to varying concentrations of GPVI (15 μL) at 37° C. and incubated together for 5 to 15 minutes. The complexed RNA/GPVI protein mixture was then loaded over a Protean BA85 nitrocellulose membrane, overlayed on a Genescreen Plus Nylon membrane, in a 96 well vacuum manifold system with washing. The membranes were exposed to a phosphorimager screen, scanned, and quantitated with a Molecular Dynamics Storm 840 Phosphorimager. The fraction bound was calculated by dividing the counts on the nitrocellulose by the total counts and adjusting for the background. Results for binding of enriched ligand libraries from round 10 E2 and round 10 EF of the SELEX as compared to the GPVI-naïve starting ligand library are shown in FIG. 3.

[4] = target: T2, Glycoprotein VI extracellular domain …; assay: filter; buffer F, 37 C; conditions: tags: C-terminal His6; R&D Systems 3627-GP; label: 5'-32P
[5] = target: T2, Glycoprotein VI extracellular domain …; assay: filter; p374 states 2-4 nM; buffer F (150 mM NaCl, 2 mM CaCl2), 37 C; conditions: tags: C-terminal His6; R&D Systems 3627-GP; label: 5'-32P
Method: as §1, with “The complexed RNA/GPVI protein mixture was then loaded over a Protean BA85 nitrocellulose membrane, overlayed on a Genescreen Plus Nylon membrane, in a 96 well vacuum manifold system with washing.” left out, “Results for binding of enriched ligand libraries from round 10 E2 and round 10 EF of the SELEX as compared to the GPVI-naïve starting ligand library are shown in FIG. 3.” left out

[6] = target: T2, Glycoprotein VI extracellular domain …; assay: filter; text p359 names it EF-3 T2mut8; conditions: tags: C-terminal His6; R&D Systems 3627-GP; label: 5'-32P
Method: as §1, with “The complexed RNA/GPVI protein mixture was then loaded over a Protean BA85 nitrocellulose membrane, overlayed on a Genescreen Plus Nylon membrane, in a 96 well vacuum manifold system with washing.” left out, “Results for binding of enriched ligand libraries from round 10 E2 and round 10 EF of the SELEX as compared to the GPVI-naïve starting ligand library are shown in FIG. 3.” left out

[7] = target: T2, Glycoprotein VI extracellular domain …; assay: filter; text p359 names it EF-3 T2 mut9; conditions: tags: C-terminal His6; R&D Systems 3627-GP; label: 5'-32P
Method: as §1, with “The complexed RNA/GPVI protein mixture was then loaded over a Protean BA85 nitrocellulose membrane, overlayed on a Genescreen Plus Nylon membrane, in a 96 well vacuum manifold system with washing.” left out, “Results for binding of enriched ligand libraries from round 10 E2 and round 10 EF of the SELEX as compared to the GPVI-naïve starting ligand library are shown in FIG. 3.” left out

[8] = target: T2, Glycoprotein VI extracellular domain …; assay: filter; text p359 names it EF-3 T2mut10; conditions: tags: C-terminal His6; R&D Systems 3627-GP; label: 5'-32P
Method: as §1, with “The complexed RNA/GPVI protein mixture was then loaded over a Protean BA85 nitrocellulose membrane, overlayed on a Genescreen Plus Nylon membrane, in a 96 well vacuum manifold system with washing.” left out, “Results for binding of enriched ligand libraries from round 10 E2 and round 10 EF of the SELEX as compared to the GPVI-naïve starting ligand library are shown in FIG. 3.” left out

[9] = target: T2, Glycoprotein VI extracellular domain …; assay: filter; equivalent to full-length EF-1; conditions: tags: C-terminal His6; R&D Systems 3627-GP; label: 5'-32P
Method: as §1, with “The complexed RNA/GPVI protein mixture was then loaded over a Protean BA85 nitrocellulose membrane, overlayed on a Genescreen Plus Nylon membrane, in a 96 well vacuum manifold system with washing.” left out, “Results for binding of enriched ligand libraries from round 10 E2 and round 10 EF of the SELEX as compared to the GPVI-naïve starting ligand library are shown in FIG. 3.” left out

[10] = target: T2, Glycoprotein VI extracellular domain …; assay: competition; competition with radiolabeled parent ligand; conditions: tags: C-terminal His6; R&D Systems 3627-GP
[11] = target: T2, Glycoprotein VI extracellular domain …; assay: filter; text: family range about 11 to 50 nM, EF-1 lowest affinity; conditions: tags: C-terminal His6; R&D Systems 3627-GP; label: 5'-32P
Method: as §1, with “RNA and GPVI dilutions were equilibrated at 37° C. prior to use. RNA (5 μL) was added to varying concentrations of GPVI (15 μL) at 37° C. and incubated together for 5 to 15 minutes. The complexed RNA/GPVI protein mixture was then loaded over a Protean BA85 nitrocellulose membrane, overlayed on a Genescreen Plus Nylon membrane, in a 96 well vacuum manifold system with washing.” left out, “Results for binding of enriched ligand libraries from round 10 E2 and round 10 EF of the SELEX as compared to the GPVI-naïve starting ligand library are shown in FIG. 3.” left out
(§2) The affinity of each of the anti-GPVI ligands for GPVI was determined by direct binding studies using radiolabeled trace ligand RNA and soluble GPVI, per the binding methodology described above in Example 1.

[12] = target: T2, Glycoprotein VI extracellular domain …; assay: competition; 5' linker ligands assayed by competition; conditions: tags: C-terminal His6; R&D Systems 3627-GP
[13] = target: T2, Glycoprotein VI extracellular domain …; assay: filter; buffer F, 37 C; conditions: tags: C-terminal His6; R&D Systems 3627-GP; label: 5'-32P
Method: as §1, with “RNA and GPVI dilutions were equilibrated at 37° C. prior to use. RNA (5 μL) was added to varying concentrations of GPVI (15 μL) at 37° C. and incubated together for 5 to 15 minutes. The complexed RNA/GPVI protein mixture was then loaded over a Protean BA85 nitrocellulose membrane, overlayed on a Genescreen Plus Nylon membrane, in a 96 well vacuum manifold system with washing.” left out, “Results for binding of enriched ligand libraries from round 10 E2 and round 10 EF of the SELEX as compared to the GPVI-naïve starting ligand library are shown in FIG. 3.” left out
as §2

GGAGGACGGCGCGCCUGGCAUAAGCCUCC [RB540]
Kd ([1]; 2'-OH G1, 2'-deoxy A6,G8,G9, 2'-F C7,C14,C15,U16,C19,U21, all others 2'-OMe, hexaethylene glycol spacer between G11 and C12, 3' idT, buffer F, 37 C): 15 nM

GGAGGACGGCGCGCCUGGCAUAAGCCUCC [RB507]
Kd ([1]; RB490 pattern, hexaethylene glycol spacer between G11 and C12, 3' idT): < 10 nM

GGGAGGACGACGCGUCUGGCAUAAGCCUCCC [RB536]
Kd ([1]; RB535 with 2'-OMe G9): > 40 nM

GGAGGACGGCGCGCCUGGCAUAAGCCUCC [RB521]
Kd ([1]; RB520 pattern, hexaethylene glycol spacer between G11 and C12, 3' idT, buffer F, 37 C): 6 nM

GGAGGACGGCGCGCCUGGCAUAAGCCUCC [RB537]
Kd ([1]; RB526 pattern, hexaethylene glycol spacer between G11 and C12, 3' idT): < 10 nM

GGAGGACGGCGCGCCUGGCAUAAGCCUCC (ssRNA, RB542 with 5' branched 40 kDa PEG) [RB570]
Kd [2]: 15.5 nM

GGAGGACGGCGCGCCUGGCAUAAGCCUCC (ssRNA, RB551 with PS G5-A6) [RB552]
Kd [3]: 15.5 nM

GGAGGACGGCGCGCCUGGCAUAAGCCUCC (ssRNA, RB540 with 2'-OH G8) [RB551]
Kd [3]: 15.5 nM

GGAGGACGGCGCGCCUGGCAUAAGCCUCC (ssRNA, RB540 with PS G8-G9) [RB549]
Kd [4]: ~6.48 nM

GGAGGACGGCGCGCCUGGCAUAAGCCUCC (ssRNA, RB540 with PS G8-G9 and G9-C10) [RB566]
Kd [5]: ~2.45 nM

GGAGGACGGCGCGCCUGGCAUAAGCCUCC (ssRNA, RB540 with PS C7-G8) [RB548]
Kd [3]: 15.5 nM

GGGAGGACGGCCUAAGCCUGGCAUAAGCCUCCC (ssRNA, 2'-F C and U; 2'-OH A and G) [EF-31 T8]
Kd [3]: > 40 nM

GGAGGACGGCGCGCCUGGCAUAAGCCUCC (ssRNA, RB540 with 2'-OMe G1 and 5' hexylamino linker) [RB542]
Kd [2]: 15.5 nM

GGAGGACGGCGCGCCUGGCAUAAGCCUCC (ssRNA, RB551 with PS A6-C7) [RB553]
Kd [3]: 15.5 nM

GGGAGGACGGCGAUCACACGCCUGGCGUAAGCCUCCC (ssRNA, 2'-F C and U; 2'-OH A and G) [EF-3 T5 mut8]
Kd [6]: 15.5 nM

GGGAGGACGGCGAUCACACGCCUUGCAUAAGCCUCCC (ssRNA, 2'-F C and U; 2'-OH A and G) [EF-3 T5 mut9]
Kd [7]: 15.5 nM

GGGAGGACGGCGAUCACACGCCUGGCAUAAGCCUCCC (ssRNA, 2'-F C and U; 2'-OH A and G) [EF-3 T5 mut10]
Kd [8]: 15.5 nM

GGAGGACGGCGCGCCUGGCAUAAGCCUCC (ssRNA, RB560 with 5' branched 40 kDa PEG) [RB569]
Kd [2]: < 10 nM

GGGAGGACGUGCGGUCUAAGCUGCGCUGGCAUAAGCCUCCC (ssRNA, 2'-F C and U; 2'-OH A and G) [EF-31 T4 (RB441)]
Kd [3]: > 40 nM

GGAGGACGGCGCGCCUGGCAUAAGCCUCC (ssRNA, RB549 with 2'-OMe G1 and 5' hexylamino linker) [RB560]
Kd [2]: < 10 nM

GGGAGGACGGCGCUAACGCCUGGCAUAAGCCUCCC (ssRNA, 2'-F C and U; 2'-OH A and G; 3' idT) [RB448]
Kd [4]: ~14.5 nM

GGGAGGACGGCGCUAACGCCUGGCAUAAGCCUCCC (ssRNA, RB448 with 2'-OMe throughout Stem 1) [RB453]
Kd [3]: < 10 nM

GGGAGGACGGCGCUAACGCCUGGCAUAAGCCUCCC (ssRNA, RB448 with 2'-OMe G23,C30) [RB462]
Kd [3]: < 10 nM

GGGAGGACGAUGCGGCAAUCGAAGCUGCAUCCAGCGUAAGCCUUCC (ssRNA, 2'-F C and U; 2'-OH A and G) [EF-1 T1 (RB426)]
Kd [9]: > 40 nM

GGGAGGACGUGCGGAUCACACCGCGCUUGCGUAAGCCUCCC (ssRNA, 2'-F C and U; 2'-OH A and G) [EF-3 T3 (RB445)]
Kd [3]: > 40 nM

GGAGGACGGCGCGCCUGGCAUAAGCCUCC (ssRNA, RB567 with 5' branched 40 kDa PEG) [RB571]
Kd [10]: ~5 nM

B1: EF-1 (RB424) (ssRNA)
RNA: GGGAGGACGAUGCGGCAAUCGAAGCUGCAUCCAGCGUAAGCCUUCCAGGGAUCGUCAGACGACUCGCUGAGGAUCCGAGA
modifications: 2'-F C and U; 2'-OH A and G
Kd [11]: > 40 nM

GGAGGACGGCGCGCCUGGCAUAAGCCUCC (ssRNA, RB566 with 2'-OMe G1 and 5' hexylamino linker) [RB567]
Kd [2]: < 10 nM

GGGAGGACGGCGCGCCUGGCAUAAGCCUCCC (ssRNA, RB490 with 5' hexylamino linker) [RB508]
Kd [12]: < 10 nM

GGGAGGACGGCGCGCCUGGCAUAAGCCUCCC (ssRNA, RB524 with 2'-OMe A7,G9) [RB527]
Kd [3]: > 40 nM

GGGAGGACGGCGCGCCUGGCAUAAGCCUCCC (ssRNA, RB520 with 2'-OMe A7,G9) [RB523]
Kd [3]: > 40 nM

GGGAGGACGGCGCGCCUGGCAUAAGCCUCCC (ssRNA, RB490 with 2'-OMe G6,C15,A21,A23,A24,G25) [RB520]
Kd [4]: ~6 nM

GGGAGGACGGCGCGCCUGGCAUAAGCCUCCC (ssRNA, RB490 with 2'-OMe G6,A7,C8) [RB517]
Kd [3]: > 40 nM

GGGAGGACGGCGCGCCUGGCAUAAGCCUCCC (ssRNA, RB524 with 2'-OMe A7, 2'-deoxy G9) [RB528]
Kd [3]: > 40 nM

B2: EF-2 (RB427) (ssRNA)
RNA: GGGAGGACGAUGCGGUGCCAAAACACCCGUCUUGCAUAAGCCUCCUACGGCAACUCAGACGACUCGCUGAGGAUCCGAGA
modifications: 2'-F C and U; 2'-OH A and G
Kd [13]: 15.5 nM
